B1: Cytochrome c2, P00094 (parent)
chain: MKISLTAATVAALVLAAPAFAGDAAKGEKEFNKCKTCHSIIAPDGTEIVKGAKTGPNLYGVVGRTAGTYPEFKYKDSIVALGASGFAWTEEDIATYVKDPGAFLKEKLDDKKAKTGMAFKLAKGGEDVAAYLASVVK

Several values for one entry are separate records, joined by “and”; a condition that tells them apart may be missing. Equal values may be shown once.

Variants of B1 are the subject of this data set. As to conditions: Rhodobacter capsulatus (strain ATCC BAA-309 / NBRC 16581 / SB1003); pH 7.5; 20 °C; GdnHCl; CD; Tris-HCl 20 mM; NaCl 40 mM; structure 1C2R; whole UniProt chain shown.

Here are results for 2 variants from FireProtDB (doi:10.1021/bi00231a002).

For Y96F, the denaturant m value is 2.59 kcal/mol/M and 1.43 kcal/mol/M; the “denaturant midpoint (higher = more stable)” value is 1.71 M and 3.32 M; the unfolding free energy was 4.42 kcal/mol and 4.75 kcal/mol.

Consider Y96C, for which the denaturant m value is 2.57 kcal/mol/M and 1.96 kcal/mol/M; the “denaturant midpoint (higher = more stable)” value was 1.44 M and 2.24 M; the unfolding free energy is 3.71 kcal/mol and 4.4 kcal/mol.
